In US20190302117:

Key:
[1] = test system: Peptide 10: EDPIYVTLEGGKKK (version of peptide 2 used for the kinetic experiments)
[2] = test system: Peptide 11: DEAIYATVAGGKKK (version of peptide 5 used for the kinetic experiments)

Row | Substance | kcat [1] [s⁻¹] | kcat/Km [1] [M⁻¹ s⁻¹] | kcat [2] [s⁻¹] | kcat/Km [2] [M⁻¹ s⁻¹] | 2/5 kcat/Km ratio (peptide 2 against peptide 5) [1] | Km [1] [µM] | Km [2] [µM]
1 | SRC as GST fusion protein | > 40 | 17500 | > 2 | 9500 |  |  | 
2 | SYK as GST fusion protein | > 2e-07 | 1080 | > 0.1 | 560 | 1.8 | > 200 | > 200
